Substrate: NC(=O)c1ccc[n+]([C@@H]2O[C@H](COP(=O)([O-])OP(=O)(O)OC[C@H]3O[C@@H](n4cnc5c(N)ncnc54)[C@H](O)[C@@H]3O)[C@@H](O)[C@H]2O)c1
Experiment: purified protein
Type: biochemical, Triticum aestivum

B1: Ga3PDHase (phosphorylating NAD+-dependent glyceraldehyde-3-phosphate dehydrogenase, EC 1.2.1.12) (Triticum aestivum) (protein)
chain: MGKIKIGINGFGRIGRLVARVALQSPDVELVAVNDPFITTDYMTYMFKYDTVHGQWKHHEVKVKDSKTLLFGEKEVAVFGCRNPEEIPWAAAGAEYVVESTGVFTDKDKAAAHIKGGAKKVIISAPSKDAPMFVCGVNEKEYKSDIDIVSNASCTTNCLAPLAKVINDRFGIVEGLMTTVHAMTATQKTVDGPSSKDWRGGRAASFNIIPSSTGAAKAVGKVLPELNGKLTGMAFRVPTVDVSVVDLTVRLAKPATYDQIKAAIKEESEGNLKGILGYVDEDLVSTDFQGDNRSSIFDAKAGIALNDHFVKLVSWYDNEWGYSTRVVDLIRHMHSTK
notes: recombinant wheat gapC (NCBI EF592180), homotetramer, E. coli
- K0.5: 136 µM

Source: article PMC3645732, “A Differential Redox Regulation of the Pathways Metabolizing Glyceraldehyde-3-Phosphate Tunes the Production of Reducing Power in the Cytosol of Plant Cells” (International Journal of Molecular Sciences, 2013)
